Reference: article PMC8683085, “Serine ADP-ribosylation marks nucleosomes for ALC1-dependent chromatin remodeling” (eLife, 2021)
Positions count from the first letter of the chain named. Names and notes keep the numbering of the source. Values belong to the molecule of their own block, whether it stands above or below them.

Molecular target: PARP1 (Homo sapiens, UniProt P09874)
Assay: PARP1 ADP-ribose chain elongation on mono-ADP-ribosylated peptide (RP-HPLC), with and without HPF1 titration
Assay type: biochemical
Details: 1 μM PARP1, 180 μM H3S10ADPr1 peptide, 2 mM NAD+, 30 °C 25 min, RP-HPLC A280, n = 3
Experimental: To analyze PARP1 and PARP2 ADPr activity on peptide substrates, 2 mM NAD^+ and 1 μM stimulating DNA were combined into the ADPr reaction buffer in the presence of 0.2, 1, or 5 μM PARP1 or PARP2, in a 25 μL reaction (2 μM PARP1/2, 2 μM DNA and 50 μL reaction volume for H2B peptides). All unmodified and mono-ADP-ribosylated substrate peptides were analyzed at a concentration of 180 μM (40 μM for H2B peptides). The reaction was incubated at 30 °C for 25 min, quenched via addition of 95 μL (70 μL in case of H2B peptide reactions) of Solvent A. It was then centrifuged at 20,000 RCF for 5 min and 100 μL of the supernatant was injected into an analytical C18 column for product analysis via RP-HPLC. An elution gradient of 0–35% Solvent B over 20 min was employed to optimize separation of the poly-ADP-ribosylated peptide products. Percent substrate turnover was calculated by integrating the peaks for the starting material and each product on the RP-HPLC A280 trace, normalizing them depending on their number of ADP-ribose moieties, and calculating ratio of total product to total peptide amounts for each reaction. All reactions were performed in triplicate and error bars represent standard deviations. Individual peaks corresponding to products with unique ADP-ribose chain lengths were collected and analyzed by ESI-MS. […]

Chain of PARP1 (P09874 whole entry): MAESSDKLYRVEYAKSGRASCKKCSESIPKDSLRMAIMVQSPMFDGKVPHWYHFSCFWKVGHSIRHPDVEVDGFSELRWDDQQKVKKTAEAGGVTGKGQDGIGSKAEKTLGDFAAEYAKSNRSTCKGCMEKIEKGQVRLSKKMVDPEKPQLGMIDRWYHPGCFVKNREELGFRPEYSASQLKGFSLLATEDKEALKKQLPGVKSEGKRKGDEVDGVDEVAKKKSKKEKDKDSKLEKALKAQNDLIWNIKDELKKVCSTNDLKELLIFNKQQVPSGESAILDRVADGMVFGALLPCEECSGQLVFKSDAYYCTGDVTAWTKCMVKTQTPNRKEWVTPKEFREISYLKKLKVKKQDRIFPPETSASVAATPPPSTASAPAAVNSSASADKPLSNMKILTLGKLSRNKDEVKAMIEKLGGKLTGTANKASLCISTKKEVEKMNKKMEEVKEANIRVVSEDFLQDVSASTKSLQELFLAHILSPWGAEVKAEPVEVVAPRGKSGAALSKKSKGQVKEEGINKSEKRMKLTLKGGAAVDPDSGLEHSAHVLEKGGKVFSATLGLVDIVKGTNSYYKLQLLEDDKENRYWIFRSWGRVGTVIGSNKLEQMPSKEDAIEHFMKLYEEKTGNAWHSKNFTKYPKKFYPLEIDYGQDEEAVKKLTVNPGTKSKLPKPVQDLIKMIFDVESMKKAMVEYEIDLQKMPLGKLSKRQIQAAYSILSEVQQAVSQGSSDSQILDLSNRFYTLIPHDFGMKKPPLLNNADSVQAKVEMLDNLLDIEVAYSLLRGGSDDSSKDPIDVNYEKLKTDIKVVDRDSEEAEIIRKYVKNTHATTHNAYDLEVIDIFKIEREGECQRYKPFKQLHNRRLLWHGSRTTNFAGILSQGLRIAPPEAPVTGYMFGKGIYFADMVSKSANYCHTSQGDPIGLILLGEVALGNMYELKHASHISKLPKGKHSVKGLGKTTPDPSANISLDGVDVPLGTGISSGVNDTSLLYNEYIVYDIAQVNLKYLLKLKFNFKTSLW

IC50 (read-out: HPF1 concentration giving 50% inhibition of PARP1-catalyzed ADP-ribose polymerization): ~14 µM
B1: HPF1: recombinant FLAG-HPF1, amino acids 27–346, PARP1/2-interacting protein (protein)
chain: KFCEADVSSDLRKEVENHYKLSLPEDFYHFWKFCEELDPEKPSDSLSASLGLQLVGPYDILAGKHKTKKKSTGLNFNLHWRFYYDPPEFQTIIIGDNKTQYHMGYFRDSPDEFPVYVGINEAKKNCIIVPNGDNVFAAVKLFLTKKLREITDKKKINLLKNIDEKLTEAARELGYSLEQRTVKMKQRDKKVVTKTFHGAGLVVPVDKNDVGYRELPETDADLKRICKTIVEAASDEERLKAFAPIQEMMTFVQFANDECDYGMGLELGMDLFCYGSHYFHKVAGQLLPLAYNLLKRNLFAEIIEEHLANRSQENIDQLAA
modifications: left off: 6xHis, N-terminal, cleaved | SUMO, N-terminal, cleaved | FLAG, N-terminal, kept

HPF1 concentration giving 50% inhibition of PARP1-catalyzed ADP-ribose polymerization: unable to appreciably inhibit
B2: HPF1 mutant (D283A): binding-deficient HPF1 mutant (protein)
chain: B1 chain with D257A
modifications: left off: 6xHis, N-terminal, cleaved | SUMO, N-terminal, cleaved | FLAG, N-terminal, kept
